These results are taken from US20160090426A1 (WUHAN YZY BIOPHARMA, published 2016).

Assay [1] has as its target T1, CD3 on CD3-positive Jurkat cells.
T1 construct: whole, on cells
Kind of assay: flow cytometry on Jurkat cells, KD fitted from mean fluorescence intensity. On the procedure: (§1) Enough HCT116 cells are cultured, digested with 0.25% trypsin and then collected by centrifugation. In the meantime, the bispecific antibody was diluted according to the concentration beginning from 10 ug/ml and ten-fold gradient dilution to obtain twelve concentration gradients for later use.
Enough Jurkat suspension cells were cultured and collected by centrifugation. The same as the steps described in the example forementioned, in the following experimental process, the cells resuspended with 100 ul PBS were detected on an instrument, and the binding affinity KD value of the bispecific antibody and the Jurkat cells was analyzed and calculated according to the mean fluorescence intensity by using software GraphPadPrism 5.0.

Assay [2] has as its target T2, EpCAM on EpCAM-positive HCT116 cells (UniProt P16422 24-314, limits assumed).
T2 construct: whole, on cells; Tumor cell surface antigen; also called CD326
T2 sequence (looked up): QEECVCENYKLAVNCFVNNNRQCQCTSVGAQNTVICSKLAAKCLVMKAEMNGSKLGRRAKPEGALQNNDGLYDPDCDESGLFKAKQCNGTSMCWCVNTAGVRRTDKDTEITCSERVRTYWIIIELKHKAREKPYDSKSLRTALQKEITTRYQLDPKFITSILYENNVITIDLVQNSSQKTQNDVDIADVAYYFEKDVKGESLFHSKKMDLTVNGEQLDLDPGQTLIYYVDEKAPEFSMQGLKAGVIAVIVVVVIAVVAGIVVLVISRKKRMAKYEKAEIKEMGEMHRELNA
The experiment in a line: flow cytometry on HCT116 cells, PE anti-human IgG Fc, KD fitted from mean fluorescence intensity. On the procedure: as §1

Assay [3] addresses T1, CD3 on CD3-positive Jurkat cells. The experiment in a line: cell-based or functional assay.
Assay [4] deals with T2, EpCAM on EpCAM-positive HCT116 cells. Kind of assay: cell-based or functional assay.

B1: EpCAM×CD3 bispecific antibody M701 (bispecific antibody, human IgG1, kappa)
heavy: EVQLLEQSGAELVRPGTSVKISCKASGYAFTNYWLGWVKQRPGHGLEWIGDIFPGSGNIHYNEKFKGKATLTADKSSSTAYMQLSSLTFEDSAVYFCARLRNWDEPMDYWGQGTTVTVSSASTKGPSVFPLAPSSKSTSGGTAALGCLVKDYFPEPVTVSWNSGALTSGVHTFPAVLQSSGLYSLSSVVTVPSSSLGTQTYICNVNHKPSNTKVDKKVEPKSCDKTHTCPPCPAPELLGGPSVFLFPPKPKDTLMISRTPEVTCVVVDVSHEDPEVKFNWYVDGVEVHNAKTKPREEQYNSTYRVVSVLTVLHQDWLNGKEYKCKVSNKALPAPIEKTISKAKGQPREPQVYTLPPSRDELTKNQVSLWCLVKGFYPSDIAVEWESNGQPENNYDTTPPVLDSDGSFFLYSDLTVDKSRWQQGNVFSCSVMHEALHNHYTQKSLSLSPGK
light: ELVMTQSPSSLTVTAGEKVTMSCKSSQSLLNSGNQKNYLTWYQQKPGQPPKLLIYWASTRESGVPDRFTGSGSGTDFTLTISSVQAEDLAVYYCQNDYSYPLTFGAGTKLEIKRTVAAPSVFIFPPSDEQLKSGTASVVCLLNNFYPREAKVQWKVDNALQSGNSQESVTEQDSKDSTYSLSSTLTLSKADYEKHKVYACEVTHQGLSSPVTKSFNRGEC
chain: not shown
notes: Heterodimer of one anti-EpCAM heavy/light chain pair (IgG form) and one anti-CD3 ScFv-Fc; also called EpCAM×CD3 MSBODY; EpCAM×CD3 MSBODY bispecific antibody
Regarding B1, the results for the Kd in assay [1] and in assay [2] were 14.3 nM and 9.6 nM, respectively. For the same molecule, the “ratio of bifluorescence via flow cytometer detection (double positive CFSE-HCT116 / PKH-26-Jurkat cells)” value in assay [3] and in assay [4] was 27.5% each time.
